The text below walks through data of US20250027068.

To fix the notation:
B1: PRT-531 (protein)
chain: MANQEIRYSEDTPSHITSVWTKGVTPPTQFIQNEDVLHAPYIANQGWYDITKTFNGKDDLLCGAATAGNMLHWWFDQNKEQIEAYLKKYPEKQKINFNGEQMFDVKEAIDTKDSQTDSALFNYFRDKAFPNLSTKHLGVMPDHVIDMFINGYRLNLGNHGPTPVKNQTKDLRGGIFDAVFTRGDQSKLLTARHDFKEKTLKEISQLIKQELTEGKALALSHTYANVRINHVINLWGADFNAEGNLEAIYVTDSDSNASIGMKKYYVGVNAAGKVAISAKEIEGDNIGAQVLGLFTLSSGQDIWQQTNLEHHHHHH
B2: PRT-617 (protein)
chain: MQITSVWTKGVTPLTPEQFRYNNEDVIHAPYLPHQGWYDITKAFDGGDNLLCGAATAGNMLHWWFDQNKTEIEAYLSKYPEKQKIIFNNQELFDLRAAINSKDSQTNSQLFNYFRDKAFPNLSARQLGVMPDLVLDMFINGYYLNVFKTQSTDVNRPYQDPDKRGGIFDDVFKEGDQTTLLTARHDLKNGGLNDISTIIKQELQSGRALALSHTYANVSISHVINLWGADFNAEGNLEAIYVTDSDANQSIGMKKYKVGINAHGHVAISAKKIEGENIGAQVLGLFTLSSGKEIWQKLSLEHHHHHH
B3: PRT-613 (protein)
chain: MQITTVWTKGVTPLTPEQFRYNNEDVIHAPYLAHQGWYDITKAFDGKDNLLCGAATAGNMLHWWFDQNKTEIEAYLSKHPEKQKIIFNNQELFDLKAAISTKDSQTNSQLFNYFRDKAFPNLSARQLGVMPDLVLDMFINGYYLNVFKTQSTDVNRPYQDKDKRGGIFDDVFTRGDQTTLLTARHDLKNGGLNDISTIIKQELTNGRALALSHTYANVSISHVINLWGADFNAEGNLEAIYVTDSDANARIGMKKYGVGINAHGHVAISAKKIEGENIGAQVLGLFTLSSGKDIWQKLSLEHHHHHH
B4: PRT-626 (protein)
chain: MQITSVWTKGVTPLTPEQFRYNNEDVIHAPYLAHQGWYDITKAFDGKDNLLCGAATAGNMLHWWFDQNKTEIEAYLSKHPEKQKIIFNNQELFDLKAAIDTKDSQTNSQLFNYFRDKAFPNLSARQLGVMPDLVLDMFINGYYLNVFKTQSTDVNRPPDDKDKRGGIFDHVFNRGDQTTLLTARHDLKNKGLNDISTIIKQELTEGRALALSHTYANVSISHVINLWGADFNAEGNLEAIYVTDSDANASIGMKKYFVGINAHGHVAISAKKIEGENIGAQVLGLFTLSSGKDIWQKLSLEHHHHHH
B5: PRT-604 (protein)
chain: MQITSVWTKGVTPLTPEQFRYNNEDVIHAPYLAHQGWYDITKAFDGKDNLLCGAATAGNMLHWWFDQNKTEIEAYLSKHPEKQKIIFNNQELFDLKAAIDTKDSQTNSQLFNYFRDKAFPNLSARQLGVMPDLVLDMFINGYYLNVFKTQSTDVNRPYQDKDKRGGIFDDVFGKGDQTTLLTARHDLKNKGLNDISTIIKQELTEGRALALSHTYANVSISHVINLWGADFNAEGNLEAIYVTDSDANASIGMKKYFVGINAHGHVAISAKKIEGENIGAQVLGLFTLSSGKDIWQKLSLEHHHHHH
B6: PRT-638 (protein)
chain: MQITSVWTKGVTPLTPEQFRYNNEDVIHAPYLAHQGWYDITKLNDTGDGLLCGAATAGNMLHWWFDQNKTEIEAYLSKHPEKQKIIFNNQELFDLKAAIDTKDSQTNSQLFNYFRDKAFPNLSARQKGVMPDLVLDMFINGYYLNVFKTQSTDVNRPYQDKDKRGGIFDAVFTRGDQTTLLTARHDLKNKGLNDISTIIKQELTEGRALALSHTYANVSISHVINLWGADFNAEGNLEAIYVTDSNAGNGIGMKKYFVGINAHGHVAISAKKIEGENIGAQVLGLFTLSSGKDIWQKLSLEHHHHHH
B7: PRT-680 (protein)
chain: MQITSVWTKGVTPLTPEQFRYNNEDVIHAPYLPHQGWYDITKAFDGKDNLLCGAATAGNMLHWWFDQNKTEIEAYLSKHPEKQKIIFNNQELFDLRAAINTKDSQTNSALFNYFRDKAFPNLSARQLGVMPDLVLDMFINGYYLNVFKTQSTDVNRPYQDKDKRGGIFDAVFTRGDQTTLLTARHDLKNKGLNDISTIIKQELTEGKALALSHTYANVSISHVINLWGADFNAEGNLEAIYVTDSDANASIGMKKYYVGINAHGHVAISAKKIEGENIGAQVLGLFTLSSGKDIWQKLSLEHHHHHH
B8: PRT-695 (protein)
chain: MTITTVWTKGVTPPTPEDFRYNNEDVLHAPYVPNQGWYDITKTFDGKDNLLCGAATAGNMLHWWFDQNKEEIERYLKKYPEKQKIIFNNQELFDVRAAINTKDSQTNSKLFNYFRDKAFPNLSARQLGVMPDLVLDMFINGYYLNLGKTQSTDVNRPYQDRDKRGGIFDAVFNRGDQTTLLTARHDLKNKGLNEISDLIKQELSSGKALALSHTYANVRINHVINLWGADFDAEGNLIAIYVTDSDANASIGMKKYYVGVNANGKVAISAKKIEGDNIGAQVLGLFTLSTGQDIWQKLSLEHHHHHH
B9: PRT-649 (protein)
chain: MQITSVWTKGVTPLTPEQFRYNNEDVIHAPYLAHQGWYDITKAFDGKDNLLCGAATAGNMLHWWFDQNKTEIEAYLSKHPEKQKIIFNNQYLFDLKAAIDTKDSQTNSQLFNYFRDKAFGNLSARQLGVMPDLVLDMFINGYKLKVNKTQSTDVNRPYQKPDNFGGIFDAVFTRGDQTTLLTARHDLKNKGLNDISTIIKQELTEGRALALSHTYANVSISHVINLWGADFNAEGNLEAIYVTDSDANASIGMKKYFVGINAHGHVAISAKKIEGENIGAQVLGLFTLSSGKDIWQKLSLEHHHHHH
B10: PRT-675 (protein)
chain: MQITSVWTKGVTPPTMDDFTINGEDVFHAPYVANQGWYDITKTFNGKDDLLCGAATAGNMLHWWFDQNKEQIERYLKKHPEKQKIIFNNQEMFDLKEAINTKDSQTDSKLFNYFRDKAFPNLSARQLGVMPDHVLDMFINGYYLNLTKTQSTDVNRPEDTKDLRGGIFDHVFTRGDQSKLLTARHDLKNKTLKEISDLIKQELTEGKALGLSHTYANVRISHVINLWGADFDAEGNLEAIYVTDSDSNASIGMKKYYVGVNSAGKVAISAKKIEGDNIGAQVLGLYTLSTGKDIWQKLSLEHHHHHH
B11: PRT-631 (protein)
chain: MQITSVWTKGVTPLTPEQFRYNNEDVIHAPYLAHQGWYDITKAFDGKDNLLCGAATAGNMLHWWFDQNKEEIDNYLKKYPDKQKIIFNNQELFDLKAAIDTKDSQTNSQLFNYFRDKAFPNLSARQLGVMPDLVLDMFINGYYLNVFKTQSTDVNRPYQDKDKRGGIFDAVFTRGDQTTLLTARHDLKNKGLNDISTIIKQELTEGRALALSHTYANVSISHVINLWGADFNAEGNLEAIYVTDSDANASIGMKKYFVGINAHGHVAISAKKIEGENIGAQVLGLFTLSSGKEIWKKLSLEHHHHHH
B12: PRT-645 (protein)
chain: MQITSVWTKGVTPLTPEQFRYNNEDVIHAPYLAHQGWYDITKAFDGKDNLLCGAATAGNMLHWWFDQNKTEIEAYLSKHPEKQKIIFNNQELFDLKAAIDTKDSQTNSQLFNYFRDKAFPNLSARQLGVMPDLVLDMFINGYYLNVFKTQSTDVNRPYQDKDKRGGIFDAVFTRGDQTTLLTARHDLKNKGLNDISTIIKQELTEGRALALSHTYANVSISHVINLWGADFNAEGNLEAIYVTDSDANASIGMKKYYVGYNKSGRVAISAYKITDENIGAQVLGLFTLSSGKDIWQKLSLEHHHHHH
B13: PRT-673 (protein)
chain: MQITSVWTKGVTPPTPEQFRYYNEDVLHAPYKPHQGWYDITKTFNGKDNLLCGAATAGNMLHWWFDQNKTQIEAYLKKYPEKQKIIFNNQKMFDLRKAINTKDSQTNSALFSYFKDKAFPNLSARQRGVMPDLVLDMFINGYYLNVGKTQSTDVNRPYQTRDKRGGIFDHVFGRGDQTKLLTARHDLKNKTLNEISQLIKQELSEGKALALSHTYANVSISHVINLWGADFNAEGNLEAIYVTDSDSDAKIGMKKYYVGKNASGKVAISAKKIEGENIGAQVLGLYTLSTGKDIWQKLSLEHHHHHH

For this series, the target named is pooled human IgG (human IgG1,2,3 and 4).
On to B1, for which the Enzyme activity endpoint: Fab′2 is 756 ng/µL, the Enzyme activity endpoint: Fc turned out to be 212 ng/µL, the Enzyme activity endpoint: IgG came to 0 ng/µL and the Enzyme activity endpoint: scIgG amounted to 0 ng/µL.
Consider B2, for which the Enzyme activity endpoint: Fab′2 was 630 ng/µL, the Enzyme activity endpoint: Fc was determined as 34 ng/µL, the Enzyme activity endpoint: IgG was determined as 798 ng/µL and the Enzyme activity endpoint: scIgG is 25 ng/µL.
B3 registered an Enzyme activity endpoint: Fab′2 of 686 ng/µL, an Enzyme activity endpoint: Fc of 433 ng/µL, an Enzyme activity endpoint: IgG of 15 ng/µL and an Enzyme activity endpoint: scIgG of 251 ng/µL.
The matching figures for B4: 569 ng/µL, 388 ng/µL, 0 ng/µL and 225 ng/µL.
For B5, the Enzyme activity endpoint: Fab′2 turned out to be 51 ng/µL, the Enzyme activity endpoint: Fc is 276 ng/µL, the Enzyme activity endpoint: IgG amounted to 396 ng/µL and the Enzyme activity endpoint: scIgG was determined as 964 ng/µL.
The matching figures for B6: 550 ng/µL, 10 ng/µL, 823 ng/µL and 17 ng/µL.
As to B7, the Enzyme activity endpoint: Fab′2 amounted to 752 ng/µL, the Enzyme activity endpoint: Fc is 451 ng/µL, the Enzyme activity endpoint: IgG turned out to be 0 ng/µL and the Enzyme activity endpoint: scIgG stood at 277 ng/µL.
The protein B8 showed an Enzyme activity endpoint: Fab′2 of 781 ng/µL, an Enzyme activity endpoint: Fc of 433 ng/µL, an Enzyme activity endpoint: IgG of 66 ng/µL and an Enzyme activity endpoint: scIgG of 0 ng/µL.
Regarding B9, the Enzyme activity endpoint: Fab′2 is 657 ng/µL, the Enzyme activity endpoint: Fc came to 32 ng/µL, the Enzyme activity endpoint: IgG was found to be 886 ng/µL and the Enzyme activity endpoint: scIgG came to 24 ng/µL.
As for B10, the Enzyme activity endpoint: Fab′2 was 448 ng/µL, the Enzyme activity endpoint: Fc is 400 ng/µL, the Enzyme activity endpoint: IgG came out at 229 ng/µL and the Enzyme activity endpoint: scIgG is 456 ng/µL.
In the same order, the values of B11 are 749 ng/µL, 419 ng/µL, 0 ng/µL and 0 ng/µL.
With B12, the Enzyme activity endpoint: Fab′2 worked out at 683 ng/µL, the Enzyme activity endpoint: Fc was determined as 455 ng/µL, the Enzyme activity endpoint: IgG is 0 ng/µL and the Enzyme activity endpoint: scIgG is 236 ng/µL.
The matching figures for B13: 34 ng/µL, 252 ng/µL, 601 ng/µL and 989 ng/µL.
